{
  "source": "patent US20240301038A1",
  "about": "(ATRECA, published 2024)",
  "binders": {"B1": {"name": "AB-009681 (antibody, V domains shown)", "VH": "QVQLVQSGAEVKKPGSSVKVSCKASGGTFSSYAISWVRQAPGQGLEWMGGIIPIFGTANYAQKFQGRVTITADESTSTAYMELSSLRSEDTAVYYCASVGGDYDLDYWGQGTLVTVSS", "VL": "EIVLTQSPATLSLSPGERATLSCRASQSVSSYLAWYQQKPGQAPRLLIYDASNRATGIPARFSGSGSGTDFTLTISSLEPEDFAVYYCQQRSNWPPYTFGQGTKLEIK"}},
  "target": "T1, SARS-CoV-2 native Spike (S) trimer (Acro Biosystems) (SARS-CoV-2, UniProt P0DTC2 16-1213)",
  "T1 construct": "also called Spike trimer",
  "experiment": "ELISA on spike trimer",
  "data": [
    {"binder": "B1", "values": [
      {"measurement": "binding result", "result": "no binding"}
    ]}
  ]
}
